Several values for one entry are separate records, joined by “and”; a condition that tells them apart may be missing. Identical values can stand only once.
Target: the molecule itself
Assay: SEC; HR200 Increase (Superdex 200 Increase 10/300 GL) column in 10 mM Tris-Cl, pH 8, 20 mM β-mercaptoethanol, 0.5 ml/min, calibrated with molecular weight markers; for Δ29 100 μl of 1.0 mg/ml injected; self-association

B1: Δ29_CaNce103p, CaNce103p lacking the first 29 amino acids (domain or fragment)
chain: DNNNNLNGMNNTIKTHPVRVSSGNHNNFPFTLSSESTLQDFLNNNKFFVDSIKHNHGNQIFDLNGQGQSPHTLWIGCSDSRAGDQCLATLPGEIFVHRNIANIVNANDISSQGVIQFAIDVLKVKKIIVCGHTDCGGIWASLSKKKIGGVLDLWLNPVRHIRAANLKLLEEYNQDPKLKAKKLAELNVISSVTALKRHPSASVALKKNEIEVWGMLYDVATGYLSQVEIPQDEFEDLFHVHDEHDEEEYNPH
notes: Carbonic anhydrase Nce103p of Candida albicans (strain HE109) lacking the first 29 amino acids; C-terminus at residue 281; no tag (stop codon kept); source: E. coli BL23(DE3), purified (HiTrap Ni column, MonoQ)
- stoichiometry N: 4 and 2

B2: CaNce103p, carbonic anhydrase from Candida albicans, wild-type full length (enzyme)
chain: MGRENILKYQLEHDHESDLVTEKDQSLLLDNNNNLNGMNNTIKTHPVRVSSGNHNNFPFTLSSESTLQDFLNNNKFFVDSIKHNHGNQIFDLNGQGQSPHTLWIGCSDSRAGDQCLATLPGEIFVHRNIANIVNANDISSQGVIQFAIDVLKVKKIIVCGHTDCGGIWASLSKKKIGGVLDLWLNPVRHIRAANLKLLEEYNQDPKLKAKKLAELNVISSVTALKRHPSASVALKKNEIEVWGMLYDVATGYLSQVEIPQDEFEDLFHVHDEHDEEEYNPH
notes: Carbonic anhydrase Nce103p of Candida albicans, full length (C-terminus at residue 281); gene amplified from genomic DNA of strain HE109; stop codon kept so that no His-tag is attached; purified on Ni through four natural C-terminal histidines; also called wt; source: E. coli BL23(DE3), purified (HiTrap Ni column, MonoQ)
- stoichiometry N: 2 and 4

Source: paper PMC6203986, “Crystal structure of carbonic anhydrase CaNce103p from the pathogenic yeast Candida albicans” (BMC Structural Biology, 2018)
